In patent US20160200782A1 (MOERAE MATRIX, published 2016):

T1: Itk(h) (human, UniProt Q08881 1-620, limits assumed)
T1 sequence (looked up): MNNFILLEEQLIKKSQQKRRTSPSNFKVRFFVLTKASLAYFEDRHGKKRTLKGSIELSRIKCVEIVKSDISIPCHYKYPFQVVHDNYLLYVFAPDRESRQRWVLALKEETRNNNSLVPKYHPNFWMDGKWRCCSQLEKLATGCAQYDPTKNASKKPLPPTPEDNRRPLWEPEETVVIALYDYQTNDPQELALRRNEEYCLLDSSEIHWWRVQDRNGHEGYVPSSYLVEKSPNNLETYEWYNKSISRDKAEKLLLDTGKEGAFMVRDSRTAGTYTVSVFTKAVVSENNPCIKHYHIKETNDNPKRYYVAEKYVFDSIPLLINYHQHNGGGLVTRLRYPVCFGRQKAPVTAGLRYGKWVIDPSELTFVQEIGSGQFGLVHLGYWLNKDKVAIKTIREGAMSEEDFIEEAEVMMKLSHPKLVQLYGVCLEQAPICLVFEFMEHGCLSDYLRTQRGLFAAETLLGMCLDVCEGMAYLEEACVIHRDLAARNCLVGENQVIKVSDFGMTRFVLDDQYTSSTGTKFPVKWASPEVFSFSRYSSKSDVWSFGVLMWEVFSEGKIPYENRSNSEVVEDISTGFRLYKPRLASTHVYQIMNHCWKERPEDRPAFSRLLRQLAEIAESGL

T2: MST1(h) (human, UniProt Q13043 1-487, limits assumed)
T2 sequence (looked up): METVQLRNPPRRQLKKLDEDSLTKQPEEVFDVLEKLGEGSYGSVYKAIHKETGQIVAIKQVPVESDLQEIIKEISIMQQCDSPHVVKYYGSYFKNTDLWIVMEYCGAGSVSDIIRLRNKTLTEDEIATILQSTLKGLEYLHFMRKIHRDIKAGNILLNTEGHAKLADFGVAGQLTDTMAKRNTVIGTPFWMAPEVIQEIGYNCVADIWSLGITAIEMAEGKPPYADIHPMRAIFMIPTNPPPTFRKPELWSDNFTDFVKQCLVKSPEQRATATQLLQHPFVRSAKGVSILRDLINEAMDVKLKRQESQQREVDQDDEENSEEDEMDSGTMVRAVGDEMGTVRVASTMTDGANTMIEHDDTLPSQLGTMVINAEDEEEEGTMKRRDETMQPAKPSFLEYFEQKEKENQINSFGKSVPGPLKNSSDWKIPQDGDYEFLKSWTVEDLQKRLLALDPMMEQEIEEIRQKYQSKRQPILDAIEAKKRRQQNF

T3: CaMKIV(h) (human, UniProt Q16566 1-473, limits assumed)
T3 sequence (looked up): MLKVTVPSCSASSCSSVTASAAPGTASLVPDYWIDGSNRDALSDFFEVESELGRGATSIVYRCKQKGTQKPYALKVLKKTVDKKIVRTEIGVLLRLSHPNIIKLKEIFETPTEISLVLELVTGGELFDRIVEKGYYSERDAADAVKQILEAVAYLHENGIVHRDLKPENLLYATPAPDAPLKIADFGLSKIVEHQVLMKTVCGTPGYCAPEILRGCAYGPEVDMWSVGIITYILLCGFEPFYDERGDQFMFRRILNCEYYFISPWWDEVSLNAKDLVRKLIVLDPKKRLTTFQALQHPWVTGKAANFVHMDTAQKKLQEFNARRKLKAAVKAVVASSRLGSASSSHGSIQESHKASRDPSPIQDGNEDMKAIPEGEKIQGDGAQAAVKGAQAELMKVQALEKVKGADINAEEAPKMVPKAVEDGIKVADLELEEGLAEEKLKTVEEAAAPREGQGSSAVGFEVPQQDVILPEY

T4: DDR2(h) (human, UniProt Q16832 422-855, limits assumed)
T4 sequence (looked up): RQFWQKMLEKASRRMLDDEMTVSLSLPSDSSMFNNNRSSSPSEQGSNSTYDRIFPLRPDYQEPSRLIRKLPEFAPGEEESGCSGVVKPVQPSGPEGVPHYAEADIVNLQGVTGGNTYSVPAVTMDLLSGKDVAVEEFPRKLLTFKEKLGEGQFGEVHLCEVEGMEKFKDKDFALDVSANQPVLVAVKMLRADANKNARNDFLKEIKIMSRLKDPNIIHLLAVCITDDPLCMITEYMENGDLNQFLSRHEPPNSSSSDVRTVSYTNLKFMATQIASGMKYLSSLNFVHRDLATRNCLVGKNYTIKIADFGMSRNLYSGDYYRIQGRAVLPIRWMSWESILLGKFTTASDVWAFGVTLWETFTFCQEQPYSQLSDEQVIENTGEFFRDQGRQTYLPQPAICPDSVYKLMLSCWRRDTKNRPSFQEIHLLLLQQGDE

T5: EphA1(h) (human, UniProt P21709 569-976, limits assumed)
T5 sequence (looked up): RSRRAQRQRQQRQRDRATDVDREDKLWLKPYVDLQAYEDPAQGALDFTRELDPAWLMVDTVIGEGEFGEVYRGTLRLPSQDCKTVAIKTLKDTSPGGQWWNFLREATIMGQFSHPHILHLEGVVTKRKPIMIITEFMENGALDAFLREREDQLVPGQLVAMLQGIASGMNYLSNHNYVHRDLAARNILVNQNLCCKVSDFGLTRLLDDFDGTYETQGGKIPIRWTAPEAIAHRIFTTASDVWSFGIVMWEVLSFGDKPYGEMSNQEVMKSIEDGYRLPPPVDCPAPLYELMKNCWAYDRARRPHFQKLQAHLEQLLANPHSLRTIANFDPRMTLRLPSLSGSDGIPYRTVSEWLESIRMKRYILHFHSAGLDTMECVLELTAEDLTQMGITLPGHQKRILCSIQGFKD

B1: MMI-0300 (peptide)
peptide: FAKLAARLYRKALARQLGVAA
B2: MMI-0400 (peptide)
peptide: KAFAKLAARLYRKALARQLGVAA

Key:
Assay in all cases: cell-based or functional assay
Ab1(Y253F)(h) = Ab1(Y253F)(h) (human, UniProt P00519 27-1130, limits assumed)
Itk(h) = target: T1, Itk(h)
JNK3(h) = JNK3(h) (human, UniProt P53779 1-464, limits assumed)
MRCKα(h) = MRCKα(h) (human, UniProt Q5VT25 1-473, limits assumed)
MST1(h) = target: T2, MST1(h)
PDGFRα(h) = PDGFRα(h) (human, UniProt P16234 550-1089, limits assumed)
CaMKIV(h) = target: T3, CaMKIV(h)
CDK9/cyclin T1(h) = CDK9/cyclin T1(h) (human, UniProt P50750 1-372; O60563 1-726, limits assumed)
DDR2(h) = target: T4, DDR2(h)
EphA1(h) = target: T5, EphA1(h)
Fgr(h) = Fgr(h) (human, UniProt P09769 1-529, limits assumed)
Also: test concentration or dose not given here.

Chain of JNK3(h) (P53779 whole entry): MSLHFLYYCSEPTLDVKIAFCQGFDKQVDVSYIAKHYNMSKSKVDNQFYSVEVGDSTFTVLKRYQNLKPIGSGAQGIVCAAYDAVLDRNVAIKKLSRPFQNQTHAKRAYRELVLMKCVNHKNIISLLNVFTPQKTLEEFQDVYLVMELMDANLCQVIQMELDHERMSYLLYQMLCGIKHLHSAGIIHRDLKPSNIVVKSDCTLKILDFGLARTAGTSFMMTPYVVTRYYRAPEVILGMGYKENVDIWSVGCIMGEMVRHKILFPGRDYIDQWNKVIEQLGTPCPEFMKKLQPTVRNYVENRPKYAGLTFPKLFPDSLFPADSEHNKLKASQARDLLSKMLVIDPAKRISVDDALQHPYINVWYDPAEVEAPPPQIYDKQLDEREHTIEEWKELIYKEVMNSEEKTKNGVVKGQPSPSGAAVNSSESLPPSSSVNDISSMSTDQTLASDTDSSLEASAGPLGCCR
Chain of CDK9/cyclin T1(h) (P50750 whole entry, chain 1 of 2): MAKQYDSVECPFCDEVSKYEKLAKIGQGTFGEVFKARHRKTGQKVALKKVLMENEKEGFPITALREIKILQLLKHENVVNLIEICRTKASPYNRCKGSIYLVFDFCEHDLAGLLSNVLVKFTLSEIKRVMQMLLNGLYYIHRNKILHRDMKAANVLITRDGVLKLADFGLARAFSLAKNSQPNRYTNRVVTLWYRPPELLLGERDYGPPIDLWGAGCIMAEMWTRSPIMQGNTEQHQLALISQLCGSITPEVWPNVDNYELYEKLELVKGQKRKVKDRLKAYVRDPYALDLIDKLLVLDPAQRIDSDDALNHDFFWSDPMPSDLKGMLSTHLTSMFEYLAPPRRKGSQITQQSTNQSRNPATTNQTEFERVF
Chain of CDK9/cyclin T1(h) (O60563 whole entry, chain 2 of 2): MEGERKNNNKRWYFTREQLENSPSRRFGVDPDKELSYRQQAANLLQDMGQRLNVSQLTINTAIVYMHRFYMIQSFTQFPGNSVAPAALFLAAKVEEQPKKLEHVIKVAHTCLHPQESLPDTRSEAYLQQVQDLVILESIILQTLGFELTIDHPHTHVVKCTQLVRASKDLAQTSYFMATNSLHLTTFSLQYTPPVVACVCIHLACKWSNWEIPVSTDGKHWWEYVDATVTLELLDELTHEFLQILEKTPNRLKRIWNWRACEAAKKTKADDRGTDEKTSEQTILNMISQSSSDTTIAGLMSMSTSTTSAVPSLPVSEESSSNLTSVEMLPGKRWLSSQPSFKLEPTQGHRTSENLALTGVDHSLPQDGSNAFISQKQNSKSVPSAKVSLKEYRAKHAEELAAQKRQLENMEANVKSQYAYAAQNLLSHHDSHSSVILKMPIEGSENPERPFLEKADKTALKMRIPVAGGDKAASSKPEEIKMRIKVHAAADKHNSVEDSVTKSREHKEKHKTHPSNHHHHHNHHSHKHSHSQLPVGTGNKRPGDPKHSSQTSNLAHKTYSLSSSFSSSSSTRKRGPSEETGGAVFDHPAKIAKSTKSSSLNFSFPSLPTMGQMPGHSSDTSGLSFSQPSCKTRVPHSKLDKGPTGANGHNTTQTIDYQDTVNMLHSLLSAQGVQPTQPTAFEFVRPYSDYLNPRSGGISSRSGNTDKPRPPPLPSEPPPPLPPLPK
Chain of MRCKα(h) (Q5VT25 1-473 limits assumed): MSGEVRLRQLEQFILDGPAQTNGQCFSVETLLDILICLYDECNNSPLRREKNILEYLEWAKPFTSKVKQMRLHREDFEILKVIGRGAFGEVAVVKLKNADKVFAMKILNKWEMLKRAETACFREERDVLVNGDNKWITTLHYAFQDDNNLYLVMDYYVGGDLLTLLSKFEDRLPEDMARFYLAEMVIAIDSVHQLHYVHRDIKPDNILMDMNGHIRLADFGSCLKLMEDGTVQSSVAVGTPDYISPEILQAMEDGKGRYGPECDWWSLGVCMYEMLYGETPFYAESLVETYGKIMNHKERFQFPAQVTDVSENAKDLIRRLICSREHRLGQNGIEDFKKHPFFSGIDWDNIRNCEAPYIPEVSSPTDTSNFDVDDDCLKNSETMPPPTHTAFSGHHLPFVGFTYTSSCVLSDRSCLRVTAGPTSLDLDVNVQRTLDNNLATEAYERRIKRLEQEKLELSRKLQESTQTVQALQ
Chain of Ab1(Y253F)(h) (P00519 27-1130 Y253F limits assumed): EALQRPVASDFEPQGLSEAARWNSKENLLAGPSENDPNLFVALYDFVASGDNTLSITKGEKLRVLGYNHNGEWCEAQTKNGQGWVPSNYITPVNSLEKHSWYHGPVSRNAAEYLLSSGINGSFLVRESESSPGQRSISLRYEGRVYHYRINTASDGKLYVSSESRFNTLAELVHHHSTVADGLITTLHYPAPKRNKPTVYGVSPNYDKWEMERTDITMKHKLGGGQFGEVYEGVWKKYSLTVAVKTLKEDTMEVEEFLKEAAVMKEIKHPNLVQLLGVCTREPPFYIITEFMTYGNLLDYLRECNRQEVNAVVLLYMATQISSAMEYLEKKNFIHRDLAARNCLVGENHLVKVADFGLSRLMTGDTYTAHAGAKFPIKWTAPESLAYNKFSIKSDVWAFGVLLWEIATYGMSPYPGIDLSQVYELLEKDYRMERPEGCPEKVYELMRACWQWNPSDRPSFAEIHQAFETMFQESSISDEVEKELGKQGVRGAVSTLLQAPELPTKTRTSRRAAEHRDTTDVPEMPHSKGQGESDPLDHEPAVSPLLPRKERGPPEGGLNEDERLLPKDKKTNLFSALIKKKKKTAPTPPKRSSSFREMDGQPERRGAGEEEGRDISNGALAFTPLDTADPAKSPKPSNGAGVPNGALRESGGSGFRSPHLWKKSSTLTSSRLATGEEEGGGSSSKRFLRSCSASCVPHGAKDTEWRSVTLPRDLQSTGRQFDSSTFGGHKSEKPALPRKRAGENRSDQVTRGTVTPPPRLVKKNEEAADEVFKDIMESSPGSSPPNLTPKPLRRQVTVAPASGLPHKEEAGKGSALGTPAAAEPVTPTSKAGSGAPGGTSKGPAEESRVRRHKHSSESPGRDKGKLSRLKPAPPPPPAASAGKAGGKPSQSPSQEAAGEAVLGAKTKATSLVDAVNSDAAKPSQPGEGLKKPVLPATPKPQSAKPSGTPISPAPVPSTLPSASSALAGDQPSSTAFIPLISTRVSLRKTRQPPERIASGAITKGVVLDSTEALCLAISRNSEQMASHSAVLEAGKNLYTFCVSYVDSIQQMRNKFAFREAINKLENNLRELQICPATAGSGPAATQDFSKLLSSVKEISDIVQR
Chain of PDGFRα(h) (P16234 550-1089 limits assumed): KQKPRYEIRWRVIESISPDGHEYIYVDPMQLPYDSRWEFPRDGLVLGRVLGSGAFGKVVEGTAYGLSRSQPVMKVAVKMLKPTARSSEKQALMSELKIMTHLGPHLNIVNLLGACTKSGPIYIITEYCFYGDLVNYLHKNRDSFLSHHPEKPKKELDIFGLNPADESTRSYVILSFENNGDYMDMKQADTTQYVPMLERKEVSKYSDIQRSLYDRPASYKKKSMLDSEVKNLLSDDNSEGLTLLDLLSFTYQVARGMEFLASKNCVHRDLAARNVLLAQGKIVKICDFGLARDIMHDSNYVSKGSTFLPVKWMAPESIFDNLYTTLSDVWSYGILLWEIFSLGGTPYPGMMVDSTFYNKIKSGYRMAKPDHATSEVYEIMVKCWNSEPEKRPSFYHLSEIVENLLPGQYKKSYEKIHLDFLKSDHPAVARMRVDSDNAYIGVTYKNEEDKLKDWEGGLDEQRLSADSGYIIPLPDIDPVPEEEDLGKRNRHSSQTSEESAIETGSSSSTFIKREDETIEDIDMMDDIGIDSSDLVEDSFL

Binder	% activity (Ab1(Y253F)(h))	% activity (Itk(h))	% activity (JNK3(h))	% activity (MRCKα(h))	% activity (MST1(h))	% activity (PDGFRα(h))	% activity (CaMKIV(h))	% activity (CDK9/cyclin T1(h))	% activity (DDR2(h))	% activity (EphA1(h))	% activity (Fgr(h))
B1	86%	77%	89%	104%	14%	65%	17%	91%	94%	73%	60%
B2	78%	63%	70%	97%	6%	40%	18%	235%	95%	61%	47%
